T1: cynomolgus monkey IL6 (cynomolgus monkey, UniProt P79341 28-212, limits assumed)
T1 construct: also called cynomolgus IL6; cyIL-6
T1 sequence (looked up): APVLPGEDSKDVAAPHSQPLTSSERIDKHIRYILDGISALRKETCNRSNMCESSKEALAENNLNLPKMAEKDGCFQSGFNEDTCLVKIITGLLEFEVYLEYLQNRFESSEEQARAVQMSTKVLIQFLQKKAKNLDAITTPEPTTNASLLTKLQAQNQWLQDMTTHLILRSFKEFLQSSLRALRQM

T2: human VEGF121 (human, UniProt P15692 181-395)
T2 construct: The limits of the proteins used (Humanzyme HZ-1206); also called human VEGFA121
T2 sequence: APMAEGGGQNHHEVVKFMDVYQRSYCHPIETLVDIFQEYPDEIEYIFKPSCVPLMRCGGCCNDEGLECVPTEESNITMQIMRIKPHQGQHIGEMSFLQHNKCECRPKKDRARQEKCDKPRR


Experiments:
human IL6 [1] = target: T3, human IL6 (human, UniProt P05231 30-212); experiment: SPR, Fab captured on anti-Fab chip, human IL6 as analyte
T3 construct: also called Interleukin-6
Description: (§1) A Human Fab Binder (28958325, Cytiva) was diluted at a final concentration of 10 μg/ml in 10 mM sodium acetate buffer, pH 5.0 and immobilized on a CM5 sensor chip using standard amine coupling chemistry. […] The reference channel was treated accordingly.
(§2) Prior to the protein measurements five startup cycles were performed for conditioning purposes. On each cycle, HBS-EP+ buffer was flowed for 120 s followed by the regeneration of the derivatized chip surface by applying 10 mM Glycine buffer pH2.0 for 60 s. Fab fragment at a concentration of 75 nM was captured on this surface for 60 s at a flow rate of 10 μl/min in HBS-EP+ buffer. No Fab fragment was applied to the reference channel. […] Regeneration of the derivatized chip surface was achieved as described above. Data were evaluated with 8K Evaluation software (Biacore Insight Evaluation 3.0). Double referencing was used and the 1:1 Binding model was used to fit the raw data.

[2] = target: human VEGF-A (isoform not given) (human, UniProt P15692-4 27-191, limits assumed); experiment: cell-based or functional assay
human IL6 [3] = target: T3, human IL6; experiment: cell-based or functional assay
cynomolgus monkey IL6 [4] = target: T1, cynomolgus monkey IL6; experiment: SPR, Fab captured on anti-Fab chip, cynomolgus IL6 as analyte
Description: as §1, §2

human VEGF165 = human VEGF165 (human, UniProt P15692-4 27-191); experiment: competition ELISA: Fab titrated against 10 pM VEGF165, free VEGF detected on plate-coated VEGF-R1
Description: (§3) The contact time between the Fab-Antigen mixture and the receptor-coated plate was restricted to 10 min at RT in order to minimize interference with the binding equilibria. […] The latter is detected exploiting the chromogenic conversion of the HRP substrate 3,3′,5,5′-tetramethylbenzidine TMB to 3,3′,5,5′-tetramethylbenzidine […], which can be followed by a change in absorbance at 450 nm. TMB was prewarmed to room temperature and incubated on the plate for 5 min before being quenched by the addition of IN H₂SO₄.

human VEGF121 = target: T2, human VEGF121; experiment: competition ELISA: Fab titrated against 10 pM VEGF121, free VEGF detected on plate-coated VEGF-R1
Description: as §3

cynomolgus monkey IL6 [5] = target: T1, cynomolgus monkey IL6; experiment: SPR in analogy to Example 3, Fab captured on anti-Fab chip
Description: as §1, §2

human IL6 [6] = target: T3, human IL6; experiment: as above
Description: as §1, §2

| Kd (human IL6 [1]) | IC50, inhibition of VEGF-A-induced HUVEC proliferation (alamarBlue) [2] | IC50, inhibition of IL-6/IL-6R-induced ICAM-1 surface expression on HRMECs (flow cytometry) (human IL6 [3]) | Kd (cynomolgus monkey IL6 [4]) | IC50 (human VEGF165) | IC50 (human VEGF121) | Kd (cynomolgus monkey IL6 [5]) | Kd (human IL6 [6]) | Binder |
| --- | --- | --- | --- | --- | --- | --- | --- | --- |
| 3.5 nM |  |  |  |  |  |  |  | VH6L-BM (Fab, V domains shown, Prior art control, prepared by recombinant expression; also called bispecific antibody VH6L of WO2012/163520) VH: YYQLVESGGGLVQPGGSLRLSCAADGFLFSGYAMSWIRQAPGKGLEWIGQISGSGGSTVYNYNVLGRFTISRDNSKNTLYLQMNSLRAEDTAVYYCARDTGYFDHWGQGTLVTVSS VL: NIQKTQSPSSLSASVGDRVTITCRALWHISSYLAWYQQKPGKAPKLLIYAASHLHYGVPSRFSGSGSGTDFTLTISSLQPEDFATYYCQQYSGLPYTFGQGTKVEIK |
| 0.069 nM | 2.06 nM | 1.52 nM | 1.48 nM | 0.111 nM | 0.458 nM |  |  | 6HVL_4 (Fab, V domains shown, Bispecific Fab; also called VEGF/IL6-bispecific antibody 6HVL_4) VH: YPQLVESGGGLVQPGGSLRLSCEASVLFKHQDMSWVRQAPGKGLEWVGSIDPRGDHKYYNTKFIDRFTISRDNSKNTLYLQMNSLRAEDTAVYYCARDLDFMDEWGQGTLVTVSS VL: AIYMHQEPSSLSASVGDRVTITCQASYWLNSELAWYQQKPGKAPKLLIYDGDDRYPEVPSRFSGSGSHEDYTLTISSLQPEDFATYYCQQYRYTPYTFGQGTKLEIKR |
|  |  |  |  |  |  | 1.3 nM | 0.022 nM | 6HdL2.05 (Fab, V domains shown, also called monospecific anti-IL6 antibody 6HdL2.05) VH: YPQLVESGGGLVQPGGSLRLSCEASVLFKHQDMSWVRQAPGKGLEWVGSISPSGGSTYYNDNVLGRFTISRDNSKNTLYLQMNSLRAEDTAVYYCARDLDFMDEWGQGTLVTVSS VL: DIQMTQSPSSLSASVGDRVTITCRASQGISNYLAWYQQKPGKAPKLLIYDGDDRYPEVPSRFSGSGSGTDFTLTISSLQPEDFATYYCQQYYSTPYTFGQGTKLEIKR |
| 0.065 nM |  |  | 1.39 nM | 0.135 nM | 0.528 nM |  |  | 6HVL_4_YHE (Fab, V domains shown) VH: YPQLVESGGGLVQPGGSLRLSCEASVLFKHQDMSWVRQAPGKGLEWVGSIDPRGDHKYYNTKFIDRFTISRDNSKNTLYLQMNSLRAEDTAVYYCARDLDFMDEWGQGTLVTVSS VL: AIQMTQSPSSLSASVGDRVTITCQASYWLNSELAWYQQKPGKAPKLLIYDGDDRYPEVPSRFSGSGSHEDYTLTISSLQPEDFATYYCQQYRYTPYTFGQGTKLEIKR |
